From patent US20160326219A1, “OPTICALLY ACTIVATED RECEPTORS” (IST AUSTRIA (INSTITUTE OF SCIENCE AND TECHNOLOGY AUSTRIA), priority 2013, published 2016)
Where two headings read alike, the source gives them in different places.

What was measured:
imFGFR1 = molecular target: T1, imFGFR1 (Mus musculus, UniProt P16092); assay: Chemical stimulation of imFGFR1, MAPK luciferase reporter (HEK293 cells); type: cell-based, murine; details: 10 nM, FIG. 2b
T1 construct: a single or both FKBP domains were deleted to yield constructs miFGFR1 and miFGFR1-ΔFKBP; myristoylation domain (N); expressed in transfected cells; host or cells: HEK293
T1 sequence (P16092 with tags, fused parts or gaps): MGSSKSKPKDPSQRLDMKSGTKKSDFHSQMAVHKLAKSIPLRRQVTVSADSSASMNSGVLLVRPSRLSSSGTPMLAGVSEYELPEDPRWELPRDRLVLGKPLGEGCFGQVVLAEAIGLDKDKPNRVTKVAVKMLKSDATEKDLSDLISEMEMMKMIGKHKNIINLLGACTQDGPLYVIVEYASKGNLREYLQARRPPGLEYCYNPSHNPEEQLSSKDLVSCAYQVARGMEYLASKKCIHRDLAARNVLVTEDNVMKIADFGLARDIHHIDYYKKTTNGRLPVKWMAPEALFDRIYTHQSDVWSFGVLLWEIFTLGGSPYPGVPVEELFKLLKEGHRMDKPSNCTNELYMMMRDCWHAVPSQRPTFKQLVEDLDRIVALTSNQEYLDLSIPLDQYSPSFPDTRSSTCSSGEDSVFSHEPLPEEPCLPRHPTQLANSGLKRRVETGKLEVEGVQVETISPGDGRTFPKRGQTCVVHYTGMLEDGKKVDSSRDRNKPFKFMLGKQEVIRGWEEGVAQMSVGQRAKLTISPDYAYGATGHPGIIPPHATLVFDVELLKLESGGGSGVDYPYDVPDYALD
Method: (§1) Activation of the MAPK pathway was assayed with the PathDetect Elk1 trans-Reporting System (Agilent) consisting of an Elk1 phosphorylation-dependent trans-activator and a luciferase-based trans-reporter. Cells were transfected with 213.3 ng total DNA per well (receptor, trans-activator and trans-reporter at ratio of 1:3:60 or 1:30:600) using Lipofectamine 2000. Six h after transfection medium was replaced with CO2-independent reduced serum starve medium (Gibco/Life Technologies; supplemented with 0.5% FBS, 2 mM L-Glutamine, 100 U/ml penicilin and 0.1 mg/ml streptomycin) for 18 h at 37° C. Cells were transferred and were either kept under constant illumination for 8 h or were protected from light. Chemical stimulation of imFGFR1 followed the same procedure, except that 10 nM AP20187 ((Clackson 1998); ARIAD Pharmaceuticals, Cambridge, Mass.) were added before transfer to the stimulation incubator. After incubation, plates were washed once with PBS and luciferase was detected with standard, off-the-shelf reagents. These were either Luciferase 1000 Assay System (Promega, Mannheim, Germany) in combination with a microplate reader equipped with an injector (Tecan Infinite 200 Pro, Maennedorf, Switzerland), or ONE-Glo Assay System (Promega) in combination with a microplate reader not equipped with an injector (BioTek Synergy H1). These assay systems provide equivalent results.

MAPK pathway = assay: All optical evaluation of pharmacological compounds, luciferase signals of HEK293 cells expressing redOpto-rtrkB; type: cell-based, human; details: red light ~0.05 μW/mm^2, UO 10 μM, SEL 0.5 μM, PD 5 μM, IMA 0.5 μM, VEM 0.5 μM
Method: Phycocyanobilin (PCB; Livchem Logistics GmbH, Frankfurt a.M., Germany) was dissolved in a dark room to a stock concentration of 10 mM in DMSO. Aliquots were stored in the dark at −20° C. Prior to experiments, cells were incubated with 50 μM PCB overnight in reduced serum starve medium at 37° C. PCB could also be applied to applied to living animals as it is non-toxic even in high doses (0.17% of diet or 10 mg/kg) (McCarty (2007).
as §1, with “Chemical stimulation of imFGFR1 followed the same procedure, except that 10 nM AP20187 ((Clackson 1998); ARIAD Pharmaceuticals, Cambridge, Mass.) were added before transfer to the stimulation incubator.” left out, “These assay systems provide equivalent results.” left out
For M38K cells, cell morphology was evaluated as described above but followed by automated image analysis. Phase contrast images (typically three images from two wells) were automatically analyzed. […] Cells were identified and measured in FIJI/ImageJ (Max Planck Society/National Institutes of Health; size limit: 40 to 600 pixel̂2, circularity limit: 0.01 to 1.00). […] For HEK293 cells, MAPK pathway activation was measured using luciferase as described above.

M38K cells = assay: All optical evaluation of pharmacological compounds / cell morphology, M38K cells stably expressing Opto-mFGFR1; type: cell-based, human; details: for Abrogation of light-induced morphology changes of M38K cells: Opto-mFGFR1 activated by blue light ~3 μW/mm^2, PD 5 μM, BIBF 0.5 μM, PON 1 μM, SEL 0.5 μM, UO 10 μM, MK 10 μM, LY 20 μM, automated image analysis
From the text: M38K and SPC212, two malignant pleural mesothelioma cell lines, were maintained in RPMI1640 supplemented with 10% FBS. Telomerase-immortalized microvascular hBE cells were maintained in Clonetics EGM2 MV endothelial growth medium (Lonza, Wakersville, Md.) supplemented with 5% FBS. For retrovirus generation, Opto-mFGFR1 or mCherry as control was subcloned into pQCXIP (Clontech, Mountain View, Calif.) using EcoRI and NotI restriction enzymes. Viral particles were generated in HEK293 cells by co-transfection with the helper plasmids pVSV-G and p-gag-pol-gpt. Supernatants were used to transduce M38K, SPC212 or hBE cells grown to 50% confluency in 6-well plates. Cells were selected with 0.8 μg/ml puromycin for 10 d and transgene expression was verified by immunoblotting.
10^5 M38K cells were seeded in each well of 6-well plates. After 24 h, cells were stimulated for 1 h or kept in the dark. FGF2 (Sigma) or PD166866 (Pfizer Global Research and Development, New London, Conn.) were added as indicated. After additional 24 h, cells were photographed on the Nikon Ti300 microscope. For quantification of cell morphology, all cell perimeters in randomly selected sections of phase contrast images were traced and aspect ratios (defined as length of major axis divided by length of minor axis of a fitted ellipse) calculated with ImageJ software (National Institute of Health). Greater than 50 individual values contributed to each average.
For M38K cells, cell morphology was evaluated as described above but followed by automated image analysis. Phase contrast images (typically three images from two wells) were automatically analyzed. Images were converted to greyscale, resized and divided into segments for local threshold correction (threshold was defined as most probably intensity multiplied by a constant factor of 0.85; Igor Pro, Wavemetrics, Lake Oswego, Oreg.). Cells were identified and measured in FIJI/ImageJ (Max Planck Society/National Institutes of Health; size limit: 40 to 600 pixel̂2, circularity limit: 0.01 to 1.00). Occasionally, outliers were removed manually. Typically 200 to 1800 individual values contributed to the averages of FIG. 9. For HEK293 cells, MAPK pathway activation was measured using luciferase as described above.

[1] = high doses (0.17% of diet or 10 mg/kg), McCarty (2007); cited from earlier work
[2] = published half lives converted to lifetimes where necessary; cited from earlier work
LOV domains = details: cited from earlier work
[3] = system: luciferase reporter plasmid; assay: Light-activated VfAU1-LOV transcription factor, luciferase reporter; type: cell-based; details: blue light ~3 μW/mm^2, FIG. 4b
From the text: The plasmid pGAVPO (Y. Yang, East China University of Science and Technology) contains a Gal4 DNA binding domain, NcVV-LOV and a transactivation domain (Wang et al. 2012) (FIG. 4b). Blue-light activation of pGAVPO was detected with the luciferase reporter plasmid applied in MAPK pathways assays (see above; this plasmid contains multiple UAS sequences). VfAU1-LOV was amplified by PCR and oligonucleotides 24 and 25 (SEQ ID NO: 38 and 39, respectively) and inserted in pGAVPO using BglII and EcoRI restriction enzymes. Constructs was verified by DNA sequencing. Luciferase activation experiments were performed as described above except that mFGFR1 plasmids were replaced with 50 ng pGAVPO per well.

[4] = dark state, read-out: Estimated KD, Dark
[5] = light state, read-out: Estimated KD, Light

## CC[C@H](C(=O)N1CCCC[C@H]1C(=O)O[C@H](CCc1ccc(OC)c(OC)c1)c1cccc(OCC(=O)NCC(CNC(=O)COc2cccc([C@@H](CCc3ccc(OC)c(OC)c3)OC(=O)[C@@H]3CCCCN3C(=O)[C@@H](CC)c3cc(OC)c(OC)c(OC)c3)c2)CN(C)C)c1)c1cc(OC)c(OC)c(OC)c1 [AP20187]
imFGFR1
  Activation of imFGFR1 (MAPK pathway): activated

## Cc1ccc(NC(=O)c2ccc(CN3CCN(C)CC3)cc2)cc1Nc1nccc(-c2cccnc2)n1 [Imatinib]
MAPK pathway
  Abrogation of MAPK pathway induction in response to red light: not effective

## NC1(c2ccc(-c3nc4ccn5c(=O)[nH]nc5c4cc3-c3ccccc3)cc2)CCC1 [MK2206]
M38K cells
  Abrogation of light-induced morphology changes of M38K cells: not effective

## COc1cc(OC)cc(-c2cc3cnc(N)nc3nc2NC(=O)NC(C)(C)C)c1 [PD166866]
MAPK pathway
  Abrogation of MAPK pathway induction in response to red light: not effective
M38K cells; M38K cells with Opto-mFGFR1, blue light, FIGS. 6e and f
  Light-induced changes in morphology after pre-treatment: inhibited
M38K cells
  Abrogation of light-induced morphology changes of M38K cells: abrogated

## N#CC(=C(/N)Sc1ccccc1N)/C(C#N)=C(/N)Sc1ccccc1N [UO126]
MAPK pathway
  Abrogation of MAPK pathway induction in response to red light: abrogated
M38K cells
  Abrogation of light-induced morphology changes of M38K cells: abrogated

## FGF2: a prominent FGFR ligand
M38K cells; M38K cells, blue light (Opto-mFGFR1) or added growth factor
  Cell morphology response: elongated morphology

## Phycocyanobilin [PCB]
[1]
  Toxicity in living animals: non-toxic

B1: CrPH-LOV1: LOV domain of C. reinhardtii phototropin, residue 16 to 133 of A8IXU7, SEQ ID NO: 6 (protein, listed as Chlamydomonas reinhardtii)
chain: AGLRHTFVVADATLPDCPLVYASEGFYAMTGYGPDEVLGHNCRFLQGEGTDPKEVQKIRDAIKKGEACSVRLLNYRKDGTPFWNLLTVTPIKTPDGRVSKFVGVQVDVTSKTEGKALA
[2]
  Estimated excited state lifetime: ~200^1 s
LOV domains; [4]
  Kd: < 55 µM
LOV domains; [5]
  Kd: < 55 µM

B2: GA-VfAU1-LOV-P: VfAU1-LOV incorporated into pGAVPO transcription factor (Gal4 DNA binding domain, transactivation domain) (protein)
chain: MKLLSSIEQACDICRLKKLKCSKEKPKCAKCLKNNWECRYSPKTKRSPLTRAHLTEVESRLERLEPDYSLVKALQMAQQNFVITDASLPDNPIVYASRGFLTLTGYSLDQILGRNCRFLQGPETDPRAVDKIRNAITKGVDTSVCLLNYRQDGTTFWNLFFVAGLRDSKGNIVNYVGVQSKVSEDYAKLLVNEQNIEYKGVRTSNMLRRK
modifications: left off: large carriers
[3]
  Light activated transcriptional response (dimerization-dependent transcription factor): light activated transcriptional responses

B3: NcVV-LOV: LOV domain of N. crassa vivid, residue 37 to 186 with Y50W mutation of Q9C3Y6, SEQ ID NO: 8 (protein, listed as Neurospora crassa)
chain: HTLYAPGGYDIMGWLIQIMNRPNPQVELGPVDTSCALILCDLKQKDTPIVYASEAFLYMTGYSNAEVLGRNCRFLQSPDGMVKPKSTRKYVDSNTINTMRKAIDRNAEVQVEVVNFKKNGQRFVNFLTMIPVRDETGEYRYSMGFQCETE
LOV domains; [4]
  Kd: < 5 µM
LOV domains; [5]
  Kd: < 0.5 µM

B4: AtPH1-LOV2: LOV domain of A. thaliana phototropin 1, residue 449 to 586 of O48963, SEQ ID NO: 2 (protein, listed as Arabidopsis thaliana)
chain: ESVDDKVRQKEMRKGIDLATTLERIEKNFVITDPRLPDNPIIFASDSFLELTEYSREEILGRNCRFLQGPETDLTTVKKIRNAIDNQTEVTVQLINYTKSGKKFWNIFHLQPMRDQKGEVQYFIGVQLDGSKHVEPVR
[2]
  Estimated excited state lifetime: ~40 s
LOV domains; [4]
  Kd: < 25 µM
LOV domains; [5]
  Kd: < 25 µM

B5: AtPH2-LOV2: LOV domain of A. thaliana phototropin 2, residue 363 to 500 of P93025, SEQ ID NO: 4 (protein, listed as Arabidopsis thaliana)
chain: DSWDLSDRERDIRQGIDLATTLERIEKNFVISDPRLPDNPIIFASDSFLELTEYSREEILGRNCRFLQGPETDQATVQKIRDAIRDQREITVQLINYTKSGKKFWNLFHLQPMRDQKGELQYFIGVQLDGSDHVEPLQ
[2]
  Estimated excited state lifetime: ~7 s
LOV domains; [4]
  Kd: < 25 µM
LOV domains; [5]
  Kd: < 25 µM
